Laboratory results taken from the nanobody polyreactivity screen of Harvey et al. (2022).

Assay: yeast display, Sf9 membrane polyspecificity reagent, FACS + sequencing; frameworks hold sequencing errors
How it was run: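 Using colony PCR, genes from sorted yeast display clones were amplified, then sequenced on MiSeq at 2 × 250 and filtered by CDR length. The clones had been stained with 10% biotinylated, detergent-solubilized Sf9 membrane reagent for 1 hour at 4 °C and sorted by FACS into low and high (top ~1%) gates on anti-HA and streptavidin fluorescence. Polyreactivity labels come from the gate of origin.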

| Sequence | polyreactivity (PSR sort gate) |
| --- | --- |
| QVQLVESGGGLVQAGGSLRLSCAASGRILRYNAMGWYRQAPGKERELVATITRSAGRTYSADSVKGRFTISRDNAKNTVYLQMNSLKPEDTAVYYCAKDTDISTLHSKGRAKSRYDYWGQGTQVTVSS | low polyreactivity |
| QVQLVESGGGLVQAGGSLRLTCAASGITFKYYAMGWYRQAPGKERELVAAIRGSGGGTNYADSVKGRFTISRDNAMNTVYLQMNSLKQEDSAVYYCAAANWRRNDYRYRFDYWGQGTQVTVSS | high polyreactivity |
| QVQLVESGGGLVQAGGSLRLSCAASGSTFQGYAMGWYRPAPGTERELVAAINYSGGSTYYADSVKGRFTISRDNAKNTVYVLMNSLKPEDTAVYYCAVKLRSRAGTSYGYWGQGTQVTVSS | high polyreactivity |
| QVQLVESGGGLVQAGGSLRLSCAASGSTFIWNAMGSYRQAPGKERELVAAISSGGSTYYADSVKGRFTISRDNAKNTVYLQMNSLKPEDTAVYYCAAEYVYNVWEQRYAVYSTDDYWGQGTQVTVSS | low polyreactivity |
| QVQLVESAGGLVQAGGRLRLSCAAYGFTFNKYAMGWSRQAPGKEREVVAYISSGDRTYYADSVKGRFTISRDNAKNTVYLQMNSLKPEDTAVYYCNAPYRIILENNNYWGHGTQVTVSS | high polyreactivity |
| QVQLVESGGGLVQAGGSLRLSCAASGRIIVLYAMGWSRQAPGKERELVASIRSGGSTNYADSVKGRFTISRDNAKNTVYLQMNSLKPEETAVYYCAARPDHKRYDYWGQGTQVTVSS | low polyreactivity |
| QVQLVESGGALVQAGGSLRLSCAASGSTFHRNAMGWYRQAPGKERELVAAITSGGSTNYADSVKGRFTISRDNAMNTVYLQLNSLKPEDTAVYSCAKDYRHYNRGWYDYWGQGTQVTVSS | low polyreactivity |
| QVQLVESGGGLDQAGGSLRLSCAASGYTFPYYTMGWYRQAPGKESELVATITRRGDSTYYADSVKGRFTISRDNAKNTVYLQMNSLKPEDTAVYYCNTASYGRHHFRKSSKMDYWGQGTQVTVSS | high polyreactivity |
| QVQLVESGGGLVQAGGSLRISCDASGSTLRGYSIGWYRQAPGKERELVAAISRRGSGTYYADSVKGRFTISRDNAKNTVYLQMNSLKPEDTAVYYCNAVNGDYEFGYWGQGTQVTVSS | high polyreactivity |
| QVQLVDSGGGLVQAGGSLRLSCDASGSTFLYYAMGWYRQAPGKERELVARITSRFGRTYYADSVKGRFTISRDNAKNTVYLQMNSLKPEDTAVYYCAAYPDYSYYYWGHGTQVTVSS | high polyreactivity |
| QVQRVESGGGLVQAGGSLRLSCAASGYTFQWYDMGWYRQAPGKERELVASISWRGGSTYYADSVKGRFTISRDNAKNTVYFQMNSLKPEDTAVYYCAASLLPDYQYDYWGQGTQVTVSS | low polyreactivity |
| QVQLVESGGGLVQAGLTLRLSCAASGRIFYPYAMVWYRQAPGKERELVAYNTRSGGSTRYADSVKGRFTISRDNAKNTLYLQMNSLITEDTAVDYCAARTWGRRSSSWGGYYWGQGTQVTVSS | high polyreactivity |
| QVQLVESGGGLVQAGGSLRLSCAASGRIFVRYAMGWYRQAPGKERELVAAINWRGSSTYYADSVKGRFTISRDNAKNTVYLQMTSLKPEDTAVYYCNTAQRYRVYRYDYWGQGTQVTVSS | high polyreactivity |
| QVHLVESGGGLVQAGGSLRLSCAASGSIFSYYGMGWYRQAPGKERELVAAITRSTGSTYYADSVKGRFTISRDYAKNTVYLQMNSLKPEDTAVYYCATEYVVLWEFDYWGQGTQVTVSS | low polyreactivity |
| QVQLVESGGRLVQAGGSLRLSCAASGRIFRRYAMGWYRQAPGKERELVAAISGSGGSTYYADSVKGRFTISRDNAKNTVYLQMNCLKPEDTAVYYCAARVGLGYDRLKSEYNYWGQGTQVTVSS | high polyreactivity |
| QVQLEESGGGLVQAGGSLRLSCAASGRTFGSNAMGWYRQAPGKERELVAAIRERGGSTYADSVKGRFTISRDNAKNTVYLQMNSLKPEDTAVYYCAADRSVIWSKNYDYWGQGTQVTVSS | low polyreactivity |

| Sequence | polyreactivity (PSR sort gate) |
| --- | --- |
| QVQLVESGGGLVQAGGSLRLSCAASGFTFGSYAMGWSRQAPGKERELVAVITRSGRTNYADSVKGRFTISRDNAKNTVYLQMNSLKPEDTAVYYCNADDVDDEVSPDLTEMDYWGQGTQVTVSS | low polyreactivity |
| QDQLVESGRGLVQAGGSLRLSCAASGNTFYRYTMGWYRQAPGNERELVDAISGRGGSTTYADSVKGRFTISRDPAKNTVYLQMKSLIPEDTAVYYCAAVTGGTAYYASTYYYWGQGTQVTVSL | high polyreactivity |
| QVQLVESGGGLVQAGGSLRLSCAASGSIFLTYDMGWYRQAPGKERELVAAITGSGDSTYYADSVKGRFTISRDNAKNTVYLQMNSLKPEDTAVYYCNADGPSTPWVDYGYWGQGTQVTVSS | low polyreactivity |
| QVQLVESGGGLVQAGGSLRLSCAASGSIFLVYGMGWYRQAPGKERELVAAITSSAGSTYYADSVKGRFTISRDNAKNTVYLQMNSLKPEDTAVYYCAARWAWSTYSYYYWGQGTQVTVSS | high polyreactivity |
| QVQLVESGGGLVQAGGSLRLSCAASGLTFKYYTMGWYRQAPGKERELVADISRTGRTSYADSVKGRFTISRDNAKNTVYLQMNSLKPEDTAVYYCNALAGIAQRRTGYYNPGDYWGQGTQVTVSS | high polyreactivity |
| QVQLVESGGGLVQAGGSLRLICAASGSTFGYYTMGWYRQAPGKERELVAAISSGGSRTNYADSVKGRFTISRDNAKNTVYLQMNSLIPEDTAVYYCAAGPVSYVRYGSEYDYWGQGTQVTVSS | high polyreactivity |
| QVQLVESGGGLVQAGGSLRLSCAASGRISGVNAMGWYRQAPGKERELVATISGSGGRTYYADSVKGRFTISRDNAKNTVYLQMNSLKPEDTAVYYCNTLVQRGGYFSLRFDYWGQGTQVTVSS | low polyreactivity |
| QVQLVESGGGLVQAGGSLRLSCAASGSNFTLYAMGWYRPAPGKERELVAAISRRGDRTYYADSVKGRFTISRDNAKNTVYLQMNSLKPADTAVYSCNARRAPPLPYYYWGQGTQVTVSS | high polyreactivity |
| QVQHVESGGGLDQAGGSLRLSCAASGSIFNGYAMGWYRQAPGKERELVADIRSGGSTYYADSVKGRFTISRDNAKNTVYLQMNSLKPEDTAVYYCAGDTITDGYDYWGQGTQVTVSS | low polyreactivity |
| QVQLVESGGGLVQAGGSLRLSCAASGRTFYRNAMGWSRQAPGKERELVAAISSTGSTYYAESVKGRFTSSRDNAKNTVYLQMNSLKPEDTAVYYCARGVHGIFGYLGQGTQVTVSS | low polyreactivity |
| QVHLVESGGGLVQAGGSLRLSCAASGGTIGTYAMGWYRQAPGKERELVAAISGRGGSTFYADSVKGRFTISRDNAKNSVYLQMNSLKPEDTAVYYSARGHGRSSKYDYWGQGTQVTVSS | high polyreactivity |
| QVQLVESGGGLVQPGGSLRLSCAASGRTFGSYVMGWYRQAPWKQRELVATISRRGGTTYYADSVKGRVTISRDNAKNSVYLELLSLKPVDTAVYYCADKYFGTRYDYWGQGTQVTVSS | high polyreactivity |
| QVQLVESGGGLVQAGGSLRLSCAASGSNFTFNALGWYRQAPGKERELVAAISKSGDRTYADSVKGRFTISRDNAKNTVYLQMNSLKPDDTAVYYCAADFSVSRYDYWGQGTQVTVSS | low polyreactivity |
| QVQLVESGGGLVQAGGSLRLSCAASGSTFFGYAMGWYRQAPGKERELVAAITYTGDTTYYADSVKGRFTISRDNAKNTVYLQMNSLNPEDTAVYYCAAGGYPVYTGRGMDYWGQGTQVTVSS | low polyreactivity |
| QVQLVESGGGLVQAGGSLRLSCAASGIIFLENAMGWYRQAPGKERELVAGISSGGNTNYADSVKGRFTISRDNAKNTVYLQMNSLKPEDTALYYCNKFGYHREYDYWGQVTQVTVSS | low polyreactivity |
| QVQLVESGGGLVQAGGSLRLSCAASGIIFPWYTMGWYRQAPGKERELVAAISSGGRTNYADSVKGRFTISRDNAKYTVYLQMNSLKPEDTAVYYCAAKYYRDRDWGQGTQVTVSS | high polyreactivity |
